{
  "source": "patent US10808024B2",
  "about": "“Antibodies against immunocomplexes comprising cyanobacterial cyclic peptide hepatotoxins” (priority 2015, dated 2020)",
  "molecules": {"B1": {"name": "SA51D1: group-specific (generic) anti-immunocomplex scFv from synthetic phage display library (antibody, V domains shown)", "VH": "EVQLLESGGGLVQPGGSLRLSCAASGFTFSNYSMHWVRQAPGKGLEWVSEITPYDGNTDYADSVKGRFTISRDNSKNTLYLQMNSLRAEDTAVYYCAREWWSSNWIYLDYWGQGTLVTVSS", "VL": "EIVLTQSPGTLSLSPGERATLSCRASQSVSSSNLAWYQQKPGQAPRLLIYGASSRATGVPDRFSGSGSGTDFTLTISRLEPEDFAVYYCQQMHSTPWTFGQGTKVEIKRT", "modifications": "Clone SA51D1; DOMAIN (31)..(35) CDR1; DOMAIN (50)..(66) CDR2; DOMAIN (99)..(110) CDR3; DOMAIN (24)..(35) CDR1; DOMAIN (51)..(57) CDR2; DOMAIN (90)..(98) CDR3"}},
  "key": {"[1]": {"system": "biotinylated anti-Adda Mab, no CCPH", "test": "TR-IFMA background signal without CCPH", "assay_type": "binding", "procedure": "(§1) By way of example, the specificity of SA51D1 to the immune complex was also seen in our immunoassay, where streptavidin-coated 96-well microtiter wells were used to capture a complex formed by biotinylated anti-Adda Mab, CCPH, SA51D1 antibody fused to alkaline phosphatase and this complex was detected with europium-labelled anti-alkaline phosphatase Pab. […] With 10 μg/l level of MC-LR the fluorescence signal was 789966 counts."}, "[2]": {"system": "immunocomplex of CCPH variant and biotinylated anti-Adda mAb", "test": "Quantitative lateral flow test with streptavidin up-converting nanoparticles", "assay_type": "binding", "conditions": "each CCPH at 1 μg/l"}, "[3]": {"system": "immunocomplex formed by anti-Adda Mab and MC-LR", "test": "BioLayer Interferometry (Octet), binding to immunocomplex", "conditions": "SA51D1 1 μg/ml", "procedure": "(§2) Binding of SA51D1 was explored using Octet RED384 instrument (Pall ForteBio). Three measurements (A, B and C) were performed in duplicates using tilted-bottom 384-well microplates (ForteBio) with 1000 rpm agitation at 30° C. Colorless Assay Buffer (Kaivogen) [0.05 M Tris-HCl, pH 7.75, 0.9% (w/v) NaCl, 0.05% (w/v) NaN3, 0.01% (v/v) Tween 40, 0.05% (w/v) bovine-γ-globulin, 20 μM diethylenetriaminepentaacetate (DTPA), and 0.5% (w/v) bovine serum albumin (BSA)] was used.\n(§3) Biotinylated ADDA Mab AD4G2 (1 μg/ml) was immobilized on Streptavidin biosensor (Dip and Read SA Biosensors, ForteBio) for 200 sec. In order to form IC, another loading was performed with MC-LR (1 μg/ml) for 200 sec. In blank measurement (C) only buffer was used instead of MC-LR. All sensors were incubated in buffer for 60 sec."}, "[4]": {"system": "immunocomplexes of CCPH variants and anti-Adda mAb", "test": "Screening and cross-reactivity studies of anti-IC scFv-AP binders, specificity class", "assay_type": "binding"}, "[5]": {"test": "BioLayer Interferometry (Octet), pre-incubation with free toxin", "assay_type": "binding", "conditions": "pre-incubated with 500 μg/L MC-LR", "procedure": "as §2, §3"}, "[6]": {"system": "anti-Adda mAb without MC-LR", "test": "BioLayer Interferometry (Octet), binding to naked primary antibody", "conditions": "SA51D1 1 μg/ml; no MC-LR", "procedure": "as §2, §3"}, "[7]": {"system": "complex of biotinylated anti-Adda Mab and MC-LR", "test": "TR-IFMA signal with MC-LR", "assay_type": "binding", "conditions": "10 μg/l MC-LR", "procedure": "as §1"}},
  "note": "Entries after “also recorded” stand apart in the source; their conditions may differ.",
  "data": [
    {"molecule": "B1", "values": [
      {"measurement": "Background fluorescence signal level", "setting": "[1]", "value": 404, "unit": "counts"},
      {"measurement": "Recognition of nine CCPH variants in lateral flow test", "setting": "[2]", "value": "recognizes all CCPH variants tested"},
      {"measurement": "Binding to immunocomplex", "setting": "[3]", "value": "binds specifically"},
      {"measurement": "Specificity of anti-IC antibody (CCPH immunocomplexes recognized)", "setting": "[4]", "value": "group-specific; also recorded: broad-specific"},
      {"measurement": "Affinity towards free MC-LR", "setting": "[5]", "value": "does not have affinity; also recorded: no affinity"},
      {"measurement": "Binding to anti-Adda mAb alone", "setting": "[6]", "value": "no interaction; also recorded: neglegtable binding"},
      {"measurement": "Fluorescence signal", "setting": "[7]", "value": 789966, "unit": "counts"}
    ]}
  ]
}
